Assay results taken from US20200157190A1.
One block for each binder: values may come before it.

Experiments:
[1] = biological target: Antigen 2; test: ELISA, supernatant 1 TO 4096, Plate 2 (Antigen 2), column 6, BLANK 0.06
[2] = biological target: Antigen 1; test: ELISA, supernatant 1 TO 1024, Plate 1 (Antigen 1), column 6, BLANK 0.07
[3] = biological target: Antigen 2; test: ELISA, supernatant 1 TO 64, Plate 2 (Antigen 2), column 6, BLANK 0.06
[4] = biological target: Antigen 1; test: ELISA, supernatant 1 TO 256, Plate 1 (Antigen 1), column 6, BLANK 0.07
[5] = biological target: Antigen 1; test: ELISA, supernatant 1 TO 4096, Plate 1 (Antigen 1), column 6, BLANK 0.07
[6] = biological target: Antigen 2; test: ELISA, supernatant UNDILUTED, Plate 2 (Antigen 2), column 6, BLANK 0.06
[7] = biological target: Antigen 1; test: ELISA, supernatant 1 TO 16, Plate 1 (Antigen 1), column 6, BLANK 0.07
[8] = biological target: Antigen 2; test: ELISA, supernatant 1 TO 16, Plate 2 (Antigen 2), column 6, BLANK 0.06
[9] = biological target: Antigen 2; test: ELISA, supernatant 1 TO 4, Plate 2 (Antigen 2), column 6, BLANK 0.06
[10] = biological target: Antigen 2; test: ELISA, supernatant 1 TO 256, Plate 2 (Antigen 2), column 6, BLANK 0.06
[11] = biological target: Antigen 1; test: ELISA, supernatant UNDILUTED, Plate 1 (Antigen 1), column 6, BLANK 0.07
[12] = biological target: Antigen 1; test: ELISA, supernatant 1 TO 64, Plate 1 (Antigen 1), column 6, BLANK 0.07
[13] = biological target: Antigen 2; test: ELISA, supernatant 1 TO 1024, Plate 2 (Antigen 2), column 6, BLANK 0.06
[14] = biological target: Antigen 1; test: ELISA, supernatant 1 TO 4, Plate 1 (Antigen 1), column 6, BLANK 0.07
[15] = biological target: Antigen 1; test: ELISA, supernatant 1 TO 1024, Plate 1 (Antigen 1), column 8, BLANK 0.07
[16] = biological target: Antigen 2; test: ELISA, supernatant 1 TO 16, Plate 2 (Antigen 2), column 8, BLANK 0.07
[17] = biological target: Antigen 1; test: ELISA, supernatant 1 TO 64, Plate 1 (Antigen 1), column 8, BLANK 0.07
[18] = biological target: Antigen 2; test: ELISA, supernatant UNDILUTED, Plate 2 (Antigen 2), column 8, BLANK 0.07
[19] = biological target: Antigen 1; test: ELISA, supernatant UNDILUTED, Plate 1 (Antigen 1), column 8, BLANK 0.07
[20] = biological target: Antigen 1; test: ELISA, supernatant 1 TO 16, Plate 1 (Antigen 1), column 8, BLANK 0.07
[21] = biological target: Antigen 1; test: ELISA, supernatant 1 TO 4, Plate 1 (Antigen 1), column 8, BLANK 0.07
[22] = biological target: Antigen 2; test: ELISA, supernatant 1 TO 4096, Plate 2 (Antigen 2), column 8, BLANK 0.07
[23] = biological target: Antigen 1; test: ELISA, supernatant 1 TO 256, Plate 1 (Antigen 1), column 8, BLANK 0.07
[24] = biological target: Antigen 2; test: ELISA, supernatant 1 TO 256, Plate 2 (Antigen 2), column 8, BLANK 0.07
[25] = biological target: Antigen 2; test: ELISA, supernatant 1 TO 4, Plate 2 (Antigen 2), column 8, BLANK 0.07
[26] = biological target: Antigen 2; test: ELISA, supernatant 1 TO 64, Plate 2 (Antigen 2), column 8, BLANK 0.07
[27] = biological target: Antigen 2; test: ELISA, supernatant 1 TO 1024, Plate 2 (Antigen 2), column 8, BLANK 0.07
[28] = biological target: Antigen 1; test: ELISA, supernatant 1 TO 4096, Plate 1 (Antigen 1), column 8, BLANK 0.07
[29] = biological target: Antigen 2; test: ELISA, supernatant 1 TO 4, Plate 2 (Antigen 2), column 10, BLANK 0.07
[30] = biological target: Antigen 2; test: ELISA, supernatant 1 TO 1024, Plate 2 (Antigen 2), column 10, BLANK 0.07
[31] = biological target: Antigen 1; test: ELISA, supernatant 1 TO 64, Plate 1 (Antigen 1), column 10, BLANK 0.07
[32] = biological target: Antigen 1; test: ELISA, supernatant 1 TO 1024, Plate 1 (Antigen 1), column 10, BLANK 0.07
[33] = biological target: Antigen 1; test: ELISA, supernatant 1 TO 4, Plate 1 (Antigen 1), column 10, BLANK 0.07
[34] = biological target: Antigen 2; test: ELISA, supernatant 1 TO 64, Plate 2 (Antigen 2), column 10, BLANK 0.07
[35] = biological target: Antigen 1; test: ELISA, supernatant 1 TO 256, Plate 1 (Antigen 1), column 10, BLANK 0.07
[36] = biological target: Antigen 2; test: ELISA, supernatant 1 TO 4096, Plate 2 (Antigen 2), column 10, BLANK 0.07
[37] = biological target: Antigen 2; test: ELISA, supernatant 1 TO 256, Plate 2 (Antigen 2), column 10, BLANK 0.07
[38] = biological target: Antigen 1; test: ELISA, supernatant UNDILUTED, Plate 1 (Antigen 1), column 10, BLANK 0.07
[39] = biological target: Antigen 1; test: ELISA, supernatant 1 TO 16, Plate 1 (Antigen 1), column 10, BLANK 0.07
[40] = biological target: Antigen 2; test: ELISA, supernatant UNDILUTED, Plate 2 (Antigen 2), column 10, BLANK 0.07
[41] = biological target: Antigen 1; test: ELISA, supernatant 1 TO 4096, Plate 1 (Antigen 1), column 10, BLANK 0.07
[42] = biological target: Antigen 2; test: ELISA, supernatant 1 TO 16, Plate 2 (Antigen 2), column 10, BLANK 0.07

- ELISA plate reading [1]: 0.06
- ELISA plate reading [2]: 0.06
- ELISA plate reading [3]: 0.26
- ELISA plate reading [4]: 0.06
- ELISA plate reading [5]: 0.06
- ELISA plate reading [6]: 2.04
- ELISA plate reading [7]: 0.07
- ELISA plate reading [8]: 0.67
- ELISA plate reading [9]: 1.4
- ELISA plate reading [10]: 0.11
- ELISA plate reading [11]: 0.22
- ELISA plate reading [12]: 0.09
- ELISA plate reading [13]: 0.08
- ELISA plate reading [14]: 0.11
B1: Heavy Chain Construct 3 with Light Chain Construct 2 (VH1-VH2/VL2) (antibody)
heavy: QSVEESGGRLVTPGTPLTLTCTVSGFSLNTNAIRWVRQAPGKGLEWIGAIDASGNTYYASWAKGRFTISKTSTTVDLKITSPTTEDTATYFCNRFNTANIWGPGTLVTVSSGQPKAPSVFPLAPCCGDTPSSTVTLGCLVKGYLPEPVTVTWNSGTLTNGVRTFPSVRQSSGLYSLSSVVSVTSSSQPVTCNVAHPATNTKVDKTVAPSTCSKPMCPPPELLGGRPQPQPQPQPQPQPQPQPQPQPQPQPQPQPQPQSRQSLEESGGRLVSPGTPLTLTCTASGFSLSSNAMGWVRQAPGEGLEYIGIIRPGGSTYYASWAKGRFTISKTSSTTVDLKMTSLTTEDTATYFCARAWDIWGPGTLVTVSLGQPKAPSVFPLAPCCGDTPSSTVTLGCLVKGYLPEPVTVTWNSGTLTNGVRTFPSVRQSSGLYSLSSVVSVTSSSQPVTCNVAHPATNTKVDKTVAPSTCSKPTCPPPELLGGPSVFIFPPKPKDTLMISRTPEVTCVVVDVSQDDPEVQFTWYINNEQVRTARPPLREQQFNSTIRVVSTLPIAHQDWLRGKEFKCKVHNKALPAPIEKTISKARGQPLEPKVYTMGPPREELSSRSVSLACMINGFYPSDISVEWEKNGKAEDNYKTTPAVLDSDGSYFLYSKLSVPTSEWQRGDVFTCSVMHEALHNHYTQKSISRSPGK
light: AFELTQTPSSVEAAVGGTVTIRCQASQSISNQLSWYQQKPGQPPKRLIYRASTLASGVPARFKGSGSGTAFTLTISDLECADGATYYCQSFYYTDVIDYNAFGGGTEVVVTGDPVAPTVLIFPPAADQVATGTVTIVCVANKYFPDVTVTWEVDGTTQTTGIENSKTPQNSADCTYNLSSTLTLTSTQYNSHKEYTCKVTQGTTSVVQSFNRGDC

- ELISA plate reading [15]: 0.08
- ELISA plate reading [16]: 2.14
- ELISA plate reading [17]: 0.01
- ELISA plate reading [18]: 2.28
- ELISA plate reading [19]: 0.15
- ELISA plate reading [20]: 0.16
- ELISA plate reading [21]: 0.12
- ELISA plate reading [22]: 0.33
- ELISA plate reading [23]: 0.06
- ELISA plate reading [24]: 1.47
- ELISA plate reading [25]: 2.12
- ELISA plate reading [26]: 2.1
- ELISA plate reading [27]: 0.68
- ELISA plate reading [28]: 0.07
B2: VH2-VH2 / VL2 (antibody)
heavy chain (VH2-CH1, PQ linker, VH2-CH1, hinge, CH2, CH3): QSLEESGGRLVSPGTPLTLTCTASGFSLSSNAMGWVRQAPGEGLEYIGIIRPGGSTYYASWAKGRFTISKTSSTTVDLKMTSLTTEDTATYFCARAWDIWGPGTLVTVSLGQPKAPSVFPLAPCCGDTPSSTVTLGCLVKGYLPEPVTVTWNSGTLTNGVRTFPSVRQSSGLYSLSSVVSVTSSSQPVTCNVAHPATNTKVDKTVAPSTCSKPTCPPPELLGGRPQPQPQPQPQPQPQPQPQPQPQPQPQPQPQPQSRQSLEESGGRLVSPGTPLTLTCTASGFSLSSNAMGWVRQAPGEGLEYIGIIRPGGSTYYASWAKGRFTISKTSSTTVDLKMTSLTTEDTATYFCARAWDIWGPGTLVTVSLGQPKAPSVFPLAPCCGDTPSSTVTLGCLVKGYLPEPVTVTWNSGTLTNGVRTFPSVRQSSGLYSLSSVVSVTSSSQPVTCNVAHPATNTKVDKTVAPSTCSKPTCPPPELLGGPSVFIFPPKPKDTLMISRTPEVTCVVVDVSQDDPEVQFTWYINNEQVRTARPPLREQQFNSTIRVVSTLPIAHQDWLRGKEFKCKVHNKALPAPIEKTISKARGQPLEPKVYTMGPPREELSSRSVSLACMINGFYPSDISVEWEKNGKAEDNYKTTPAVLDSDGSYFLYSKLSVPTSEWQRGDVFTCSVMHEALHNHYTQKSISRSPGK
light chain: B1 light

- ELISA plate reading [29]: 2.38
- ELISA plate reading [30]: 0.94
- ELISA plate reading [31]: 0.08
- ELISA plate reading [32]: 0.1
- ELISA plate reading [33]: 0.12
- ELISA plate reading [34]: 2.19
- ELISA plate reading [35]: 0.08
- ELISA plate reading [36]: 0.39
- ELISA plate reading [37]: 1.68
- ELISA plate reading [38]: 0.09
- ELISA plate reading [39]: 0.08
- ELISA plate reading [40]: 2.27
- ELISA plate reading [41]: 0.08
- ELISA plate reading [42]: 2.24
B3: Original Heavy Chain (VH2) and Light Chain (VL2) that recognizes Antigen 2 (antibody, V domains shown)
VH: QSLEESGGRLVSPGTPLTLTCTASGFSLSSNAMGWVRQAPGEGLEYIGIIRPGGSTYYASWAKGRFTISKTSSTTVDLKMTSLTTEDTATYFCARAWDIWGPG
VL: AFELTQTPSSVEAAVGGTVTIRCQASQSISNQLSWYQQKPGQPPKRLIYRASTLASGVPARFKGSGSGTAFTLTISDLECADGATYYCQSFYYTDVIDYNAFGGGTEVVVTG
